According to paper PMC10397247:
Like-named read-outs stand apart in the source and are kept apart here.

Columns and labels:
[1] = molecular target: T1, 4H485-AA; assay: two-hybrid library CCmax; settings: mean of both orientations;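 further: natural log of median RNA to DNA barcode read ratio; higher means stronger binding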
T1 chain: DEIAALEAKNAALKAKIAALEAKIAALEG

[2] = molecular target: T2, 4H3590-AA; assay: two-hybrid library CCmax; settings: mean of both orientations;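 further: natural log of median RNA to DNA barcode read ratio; higher means stronger binding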
T2 chain: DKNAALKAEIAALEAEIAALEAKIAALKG

[3] = molecular target: T3, 4H909-AA; assay: two-hybrid library CCmax; settings: mean of both orientations;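 further: natural log of median RNA to DNA barcode read ratio; higher means stronger binding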
T3 chain: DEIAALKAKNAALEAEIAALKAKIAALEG

[4] = molecular target: T4, 4H745-AA; assay: two-hybrid library CCmax; settings: mean of both orientations;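 further: natural log of median RNA to DNA barcode read ratio; higher means stronger binding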
T4 chain: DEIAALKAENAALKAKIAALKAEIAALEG

[5] = molecular target: T5, 4H850-AA; assay: two-hybrid library CCmax; settings: mean of both orientations
T5 chain: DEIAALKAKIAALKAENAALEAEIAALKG

[6] = molecular target: T6, 4H3753-AA; assay: two-hybrid library CCmax; settings: mean of both orientations
T6 chain: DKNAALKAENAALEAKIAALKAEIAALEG

[7] = molecular target: T7, 4H3410-AA; assay: two-hybrid library CCmax; settings: mean of both orientations
T7 chain: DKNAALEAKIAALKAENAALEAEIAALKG

[8] = molecular target: T8, 4H797-AA; assay: two-hybrid library CCmax; settings: mean of both orientations
T8 chain: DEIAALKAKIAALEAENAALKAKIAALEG

[9] = molecular target: T9, 4H891-AA; assay: two-hybrid library CCmax; settings: mean of both orientations
T9 chain: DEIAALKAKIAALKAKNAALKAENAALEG

[10] = molecular target: T10, 4H3395-AA; assay: two-hybrid library CCmax
T10 chain: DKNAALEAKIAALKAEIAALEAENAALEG

[11] = molecular target: T11, 4H3865-AA; assay: two-hybrid library CCmax; settings: mean of both orientations
T11 chain: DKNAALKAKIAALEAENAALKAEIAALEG

[12] = molecular target: T12, 4H629-AA; assay: two-hybrid library CCmax; settings: mean of both orientations
T12 chain: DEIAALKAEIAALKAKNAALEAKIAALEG

[13] = molecular target: T13, 4H710-AA; assay: two-hybrid library CCmax; settings: mean of both orientations
T13 chain: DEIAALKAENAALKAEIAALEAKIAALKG

[14] = molecular target: T14, 4H94-AA; assay: two-hybrid library CCmax; settings: mean of both orientations
T14 chain: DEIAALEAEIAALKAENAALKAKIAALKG

[15] = molecular target: T15, 4H570-AA; assay: two-hybrid library CCmax; settings: mean of both orientations
T15 chain: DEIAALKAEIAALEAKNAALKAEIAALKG

[16] = molecular target: T16, 4H536-AA; assay: two-hybrid library CCmax; settings: mean of both orientations
T16 chain: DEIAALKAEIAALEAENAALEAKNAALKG

[17] = molecular target: T17, 4H3697-AA; assay: two-hybrid library CCmax; settings: mean of both orientations
T17 chain: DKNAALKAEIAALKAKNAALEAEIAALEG

[18] = molecular target: T18, 4H458-AA; assay: two-hybrid library CCmax; settings: mean of both orientations
T18 chain: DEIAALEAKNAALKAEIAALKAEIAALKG

[19] = molecular target: T19, 4H930-AA; assay: two-hybrid library CCmax; settings: mean of both orientations
T19 chain: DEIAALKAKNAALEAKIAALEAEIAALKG

[20] = molecular target: T20, 4H3627-AA; assay: two-hybrid library CCmax; settings: mean of both orientations
T20 chain: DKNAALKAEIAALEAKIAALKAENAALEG

[21] = molecular target: T21, 4H3427-AA; assay: two-hybrid library CCmax; settings: mean of both orientations
T21 chain: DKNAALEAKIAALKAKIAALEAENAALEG

[22] = molecular target: T22, 4H794-AA; assay: two-hybrid library CCmax; settings: mean of both orientations
T22 chain: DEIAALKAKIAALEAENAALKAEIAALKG

[23] = molecular target: T23, 4H342-AA; assay: two-hybrid library CCmax; settings: mean of both orientations
T23 chain: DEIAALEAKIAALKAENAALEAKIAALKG

[24] = molecular target: T24, 4H605-AA; assay: two-hybrid library CCmax; settings: mean of both orientations
T24 chain: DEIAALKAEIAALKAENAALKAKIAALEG

[25] = molecular target: T25, 4H454-AA; assay: two-hybrid library CCmax; settings: mean of both orientations
T25 chain: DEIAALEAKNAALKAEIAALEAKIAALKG

[26] = molecular target: T26, 4H48-AA; assay: two-hybrid library CCmax; settings: mean of both orientations
T26 chain: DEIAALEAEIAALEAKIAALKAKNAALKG

[27] = molecular target: T27, 4H3343-AA; assay: two-hybrid library CCmax
T27 chain: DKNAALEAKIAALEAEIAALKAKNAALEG

[28] = molecular target: T28, 4H3606-AA; assay: two-hybrid library CCmax; settings: mean of both orientations
T28 chain: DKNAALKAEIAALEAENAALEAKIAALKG

[29] = molecular target: T29, 4H3921-AA; assay: two-hybrid library CCmax; settings: mean of both orientations
T29 chain: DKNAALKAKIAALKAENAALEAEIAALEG

[30] = molecular target: T30, 4H780-AA; assay: two-hybrid library CCmax; settings: mean of both orientations
T30 chain: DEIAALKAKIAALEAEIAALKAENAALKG

[31] = molecular target: T31, 4H3655-AA; assay: two-hybrid library CCmax; settings: mean of both orientations
T31 chain: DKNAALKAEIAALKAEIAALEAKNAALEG

[32] = molecular target: T32, 4H993-AA; assay: two-hybrid library CCmax; settings: mean of both orientations
T32 chain: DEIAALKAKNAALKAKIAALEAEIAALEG

[33] = molecular target: T33, 4H429-AA; assay: two-hybrid library CCmax; settings: mean of both orientations
T33 chain: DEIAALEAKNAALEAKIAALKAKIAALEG

[34] = molecular target: T34, 4H906-AA; assay: two-hybrid library CCmax; settings: mean of both orientations
T34 chain: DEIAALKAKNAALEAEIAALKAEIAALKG

[35] = molecular target: T35, 4H335-AA; assay: two-hybrid library CCmax; settings: mean of both orientations
T35 chain: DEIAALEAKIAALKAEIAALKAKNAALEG

[36] = molecular target: T36, 4H566-AA; assay: two-hybrid library CCmax; settings: mean of both orientations
T36 chain: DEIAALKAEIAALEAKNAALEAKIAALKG

[37] = molecular target: T37, 4H881-AA; assay: two-hybrid library CCmax; settings: mean of both orientations
T37 chain: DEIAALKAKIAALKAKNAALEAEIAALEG

[38] = molecular target: T38, 4H3844-AA; assay: two-hybrid library CCmax; settings: mean of both orientations
T38 chain: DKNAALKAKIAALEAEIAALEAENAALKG

[39] = molecular target: T39, 4H717-AA; assay: two-hybrid library CCmax; settings: mean of both orientations
T39 chain: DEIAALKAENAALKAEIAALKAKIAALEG

[40] = molecular target: T40, 4H678-AA; assay: two-hybrid library CCmax; settings: mean of both orientations
T40 chain: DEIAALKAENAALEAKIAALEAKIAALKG

[41] = molecular target: T41, 4H908-bN; assay: two-hybrid library CCNG1
T41 chain: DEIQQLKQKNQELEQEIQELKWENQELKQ

[42] = molecular target: T42, 4H967-bN; assay: two-hybrid library CCNG1
T42 chain: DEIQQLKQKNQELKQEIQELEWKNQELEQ

[43] = molecular target: T43, 4H918-bN; assay: two-hybrid library CCNG1
T43 chain: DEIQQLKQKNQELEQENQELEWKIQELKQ

[44] = molecular target: T44, 4H953-bN; assay: two-hybrid library CCNG1
T44 chain: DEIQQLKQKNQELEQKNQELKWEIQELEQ

[45] = molecular target: T45, 4H3381-AA; assay: two-hybrid library CCmax; settings: mean of both orientations
T45 chain: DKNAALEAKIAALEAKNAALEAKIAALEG

[46] = molecular target: T46, 4H3165-AA; assay: two-hybrid library CCmax
T46 chain: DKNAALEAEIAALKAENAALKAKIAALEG

[47] = molecular target: T47, APC9806-AA; assay: two-hybrid library CCmax
T47 chain: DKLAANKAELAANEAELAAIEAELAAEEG

B1: 4H3395-AA (peptide)
chain: DKNAALEAKIAALKAEIAALEAENAALEG
- interaction score [1]: -1.67
- interaction score [2]: 0.738
- interaction score [3]: -1.83
- interaction score [4]: -1.46
- interaction score [5]: -1.34
- interaction score [6]: -0.825
- interaction score [7]: -1.06
- interaction score [8]: -1.43
- interaction score [9]: 0.496
- interaction score [10]: 0.0829
- interaction score [11]: -1.79
- interaction score [12]: -1.64
- interaction score [13]: -1.32
- interaction score [14]: -0.52
- interaction score [15]: -0.846
- interaction score [16]: -1.14
- interaction score [17]: -1.79
- interaction score [18]: -1.44
- interaction score [19]: -1.33

B2: 4H3343-AA (peptide)
chain: DKNAALEAKIAALEAEIAALKAKNAALEG
- interaction score [20]: -0.363
- interaction score [21]: -0.88
- interaction score [22]: -1.33
- interaction score [23]: -1.13
- interaction score [24]: -1.38
- interaction score [25]: -0.866
- interaction score [26]: -0.868
- interaction score [27]: 1.37
- interaction score [28]: -1.94
- interaction score [29]: -1.44
- interaction score [30]: -1.16
- interaction score [31]: -1.03
- interaction score [32]: -1.4
- interaction score [33]: -1.22
- interaction score [34]: -1.17
- interaction score [35]: 0.806
- interaction score [36]: -1.55
- interaction score [37]: -1.72
- interaction score [38]: 0.2
- interaction score [39]: -1.27
- interaction score [40]: -1.08

B3: 4H908-bN (peptide)
chain: DEIQQLKQKNQELEQEIQELKWENQELKQ
- interaction score [41]: -0.618
- interaction score [42]: -0.23
- interaction score [43]: -0.988
- interaction score [44]: -0.77

B4: 4H3165-AA (peptide)
chain: DKNAALEAEIAALKAENAALKAKIAALEG
- interaction score [1]: -1.05
- interaction score [2]: -0.944
- interaction score [3]: -1.43
- interaction score [4]: -0.851
- interaction score [5]: -0.685
- interaction score [6]: -1.55
- interaction score [7]: -0.394
- interaction score [8]: -0.547
- interaction score [9]: -1.63
- interaction score ([10]; mean of both orientations): -1.37
- interaction score [11]: -0.353
- interaction score [12]: -0.975
- interaction score [13]: -1.07
- interaction score [14]: 0.996
- interaction score [15]: -1.57
- interaction score [16]: -1.27
- interaction score [45]: -1.72
- interaction score [17]: -0.699
- interaction score [46]: 1.88
- interaction score [18]: -1.24
- interaction score [19]: -1.79

B5: APC9806-AA (peptide)
chain: DKLAANKAELAANEAELAAIEAELAAEEG
- interaction score [47]: -2.12
